Assay results published in the supplement of paper PMC10126150.
± gives the standard deviation of the averaged measurements.
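Also: ATP exposure 15 min at 22 °C before imaging.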

What follows are sequences tested on ATP (assay: switch fluorescence ratio, 500 uM ATP over buffer (Cy3 cluster intensity, sum of 5 cycles each) (fold (ratio)); higher = stronger signal-on switching upon ATP binding; sequences stand for … in TCGTCGGCAGCGTCAGATGTGTATAAGAGACAGTTTTTTTTTTTTTTTTTTTTTTTTT…TC). Conditions: aptamer strand: ATP DNA aptamer (quencher-CACCTGGGGGAGTATTGCGGAGGAAGG + anchor), 100 nM annealed; ATP concentration: 500 uM.
Summary of the method: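 The quencher-labelled ATP aptamer, at 100 nM, was annealed to Cy3-labelled switching-strand clusters on a modified Illumina MiSeq flow-cell. The clusters were imaged in selection buffer, then after 15 min with 500 uM ATP at 22 °C, and this buffer/ATP cycle ran five times with NaOH stripping and re-annealing between runs. Per-cluster fluorescence ratios, summed target-cycle over summed buffer-cycle Cy3 intensity, were averaged per switch-domain sequence. Clusters outside 100-1000 RFU were excluded.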
CTTGAATTTC showed a switch fluorescence ratio of 0.987 ± 0.017. With CTTGACAATT the switch fluorescence ratio was 1 ± 0.023. CTTGAGTGTG was tested, and the switch fluorescence ratio was 0.9827 ± 0.006. CTTGCAAACG gave a switch fluorescence ratio of 1.201 ± 0.0043. CTTGCCTCAG showed a switch fluorescence ratio of 1.021 ± 0.0076. In the case of CTTGCTATGC, the switch fluorescence ratio is reported as 1.64 ± 0.4. CTTGCTGTTG gave a switch fluorescence ratio of 1.0031 ± 0.00076. For CTTGGAGGAA, the switch fluorescence ratio was 0.999 ± 0.044. Work on CTTGGCGAGA yielded a switch fluorescence ratio of 1.01 ± 0.018. Sequence CTTGGGAATA has a switch fluorescence ratio of 1.01 ± 0.05. For CTTGGGATCA, the switch fluorescence ratio was 0.971 ± 0.011. CTTGGGATTA showed a switch fluorescence ratio of 1.03 ± 0.016. CTTGGGGATC showed a switch fluorescence ratio of 0.979 ± 0.013. Sequence CTTGGGGTTA has a switch fluorescence ratio of 0.998 ± 0.023. CTTGTAAATT was tested, and the switch fluorescence ratio was 0.983 ± 0.035. For CTTGTACTAA, the switch fluorescence ratio was 1.012 ± 0.0062. Sequence CTTGTATAGC has a switch fluorescence ratio of 0.992 ± 0.028. In the case of CTTGTCATCT, the switch fluorescence ratio is reported as 1.005 ± 0.0061. CTTGTGAGGA showed a switch fluorescence ratio of 1 ± 0.036. In the case of CTTGTGGCGT, the switch fluorescence ratio is reported as 1 ± 0.049. CTTGTGTACG gave a switch fluorescence ratio of 0.965 ± 0.02. CTTGTGTGTT gave a switch fluorescence ratio of 0.993 ± 0.057. With CTTTAAGGGA the switch fluorescence ratio was 0.9875 ± 0.0035. CTTTACAGGG gave a switch fluorescence ratio of 1 ± 0.064. CTTTACTTTT was tested, and the switch fluorescence ratio was 1.014 ± 0.0061. CTTTATGCGG gave a switch fluorescence ratio of 0.99361 ± 0.00077. CTTTATGTCT showed a switch fluorescence ratio of 1 ± 0.033. Sequence CTTTGAGCGA has a switch fluorescence ratio of 1.11 ± 0.032. With CTTTGATTGA the switch fluorescence ratio was 0.9806 ± 0.0047. CTTTGCACGA gave a switch fluorescence ratio of 1.1 ± 0.0077. CTTTGTAGGG was tested, and the switch fluorescence ratio was 1.008 ± 0.0029. In the case of CTTTGTAGTA, the switch fluorescence ratio is reported as 0.977 ± 0.034. Work on CTTTGTGGGG yielded a switch fluorescence ratio of 1.01 ± 0.029. Sequence CTTTTAACTC has a switch fluorescence ratio of 1.01 ± 0.024. CTTTTAATAG showed a switch fluorescence ratio of 1.08 ± 0.057. With CTTTTACATG the switch fluorescence ratio was 1.003 ± 0.0095. In the case of CTTTTAGAAC, the switch fluorescence ratio is reported as 0.986 ± 0.027. CTTTTCAGGT gave a switch fluorescence ratio of 0.998 ± 0.019. With CTTTTCTGAT the switch fluorescence ratio was 0.993 ± 0.04. CTTTTCTGTT gave a switch fluorescence ratio of 0.9861 ± 0.0085. CTTTTGAGGA was tested, and the switch fluorescence ratio was 0.9952 ± 0.0042. In the case of CTTTTGGGCG, the switch fluorescence ratio is reported as 1.01 ± 0.056. Sequence CTTTTTATGT has a switch fluorescence ratio of 0.96 ± 0.016. For CTTTTTGACT, the switch fluorescence ratio was 1.01 ± 0.028. CTTTTTGGAC gave a switch fluorescence ratio of 0.994 ± 0.071. With CTTTTTGGGA the switch fluorescence ratio was 0.987 ± 0.012. CTTTTTGTTG showed a switch fluorescence ratio of 1.03 ± 0.031. CTTTTTTAAT showed a switch fluorescence ratio of 0.982 ± 0.012. With CTTTTTTGTT the switch fluorescence ratio was 1 ± 0.021. CTTTTTTTGG gave a switch fluorescence ratio of 1 ± 0.022. Work on GAAAAAAGGA yielded a switch fluorescence ratio of 0.981 ± 0.028. For GAAAAACTGT, the switch fluorescence ratio was 1.06 ± 0.021. GAAAAAGGAG gave a switch fluorescence ratio of 1 ± 0.018. GAAAAAGGCG gave a switch fluorescence ratio of 1.01 ± 0.043. In the case of GAAAAAGTCG, the switch fluorescence ratio is reported as 0.997 ± 0.042. GAAAACATAG gave a switch fluorescence ratio of 1.01 ± 0.02. GAAAACTTAA showed a switch fluorescence ratio of 1.029 ± 0.006. Work on GAAAAGCATG yielded a switch fluorescence ratio of 0.988 ± 0.043. Work on GAAAAGGGAG yielded a switch fluorescence ratio of 0.974 ± 0.032. Work on GAAAATAGAT yielded a switch fluorescence ratio of 0.9663 ± 0.0028. Sequence GAAAATTAGT has a switch fluorescence ratio of 1.016 ± 0.0023. For GAAAATTTTT, the switch fluorescence ratio was 1.06 ± 0.044. For GAAACAGTGT, the switch fluorescence ratio was 0.9732 ± 0.0046. Sequence GAAACGGATG has a switch fluorescence ratio of 0.993 ± 0.041. In the case of GAAACTAGTT, the switch fluorescence ratio is reported as 0.992 ± 0.013. In the case of GAAACTTAGG, the switch fluorescence ratio is reported as 1.01 ± 0.019. GAAAGAAGTC gave a switch fluorescence ratio of 1.05 ± 0.02. For GAAAGAGAGT, the switch fluorescence ratio was 0.987 ± 0.023. GAAAGATTAT gave a switch fluorescence ratio of 1.03 ± 0.02. With GAAAGCCTTT the switch fluorescence ratio was 1 ± 0.012. In the case of GAAAGCGGCT, the switch fluorescence ratio is reported as 1.032 ± 0.0089. In the case of GAAAGGCAAA, the switch fluorescence ratio is reported as 1.025 ± 0.0026. For GAAAGGCAGA, the switch fluorescence ratio was 1.01 ± 0.01. Sequence GAAAGGGCTC has a switch fluorescence ratio of 1.09 ± 0.069. GAAAGGGGAT showed a switch fluorescence ratio of 0.99 ± 0.018. For GAAAGGGGGG, the switch fluorescence ratio was 1.04 ± 0.098. GAAAGGGGTG showed a switch fluorescence ratio of 1.02 ± 0.064. GAAAGTGCAA showed a switch fluorescence ratio of 1.09 ± 0.02. With GAAAGTTTGG the switch fluorescence ratio was 1.01 ± 0.017. GAAATACGGG showed a switch fluorescence ratio of 1.09 ± 0.043. GAAATATCAA gave a switch fluorescence ratio of 0.974 ± 0.039. GAAATCATCA showed a switch fluorescence ratio of 0.96 ± 0.025. In the case of GAAATGTCGG, the switch fluorescence ratio is reported as 1.02 ± 0.028. GAAATGTGTT showed a switch fluorescence ratio of 1 ± 0.056. GAAATTAAGT was tested, and the switch fluorescence ratio was 1.02 ± 0.045. GAAATTAATA was tested, and the switch fluorescence ratio was 0.993 ± 0.027. Sequence GAAATTGGGA has a switch fluorescence ratio of 1.08 ± 0.12. Sequence GAAATTTAAA has a switch fluorescence ratio of 0.99756 ± 0.00083. GAAATTTACT was tested, and the switch fluorescence ratio was 0.991 ± 0.053. GAAATTTTCC gave a switch fluorescence ratio of 1.35 ± 0.077. With GAACAAGGGA the switch fluorescence ratio was 1.004 ± 0.0086. For GAACACTTCT, the switch fluorescence ratio was 1.05 ± 0.014. GAACAGTCCG showed a switch fluorescence ratio of 1.051 ± 0.0039. GAACATCTCG was tested, and the switch fluorescence ratio was 0.993 ± 0.035. GAACGAAAGG gave a switch fluorescence ratio of 1.03 ± 0.042. Sequence GAACGACCGC has a switch fluorescence ratio of 1.34 ± 0.065. Sequence GAACGGACAC has a switch fluorescence ratio of 1.45 ± 0.015. For GAACGGCATG, the switch fluorescence ratio was 1.04 ± 0.015. With GAACGGCCGG the switch fluorescence ratio was 1.004 ± 0.0092. With GAACTACAGG the switch fluorescence ratio was 0.987 ± 0.041.
